The record followed here is the supplement of paper PMC10567573.

The labels stand for the following.
B1: ZNF511 (parent)
chain: FDALDDYEHHYHTLHGNVCSFCKR
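Note: lentivirally expressed fusions sorted by FACS into six bins by GFP to DsRed ratio, PSI derived from sequencing read proportions per bin multiplied by bin number.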

This data set covers variants of B1. Put plainly: protein stability index of a GFP-peptide fusion (GPS, HEK-293T) (PSI 1-6); higher = more stable. The following applies: c terminus: a fixed tail appended.
On to FDALDDYEHHYHTLHGNVCSFCPR [K23P], for which the protein stability index stood at 3. Regarding FDALDDYEHHYHTLHGNVCSFCAR [K23A], the protein stability index turned out to be 3.47. Take FDALDDYEHHYHTLHGNVCSFCGR [K23G]: the protein stability index came out at 4.15. In the case of FDALDDYEHHYHTLHGNVCSFCYR [K23Y], the protein stability index is 2.59. Consider FDALDDYEHHYHTLHGNVCSFCLR [K23L], for which the protein stability index stood at 3.03.

As to FDALDDYEHHYHTLHGNVCSFCNR [K23N], the protein stability index was 3.96. Take FDALDDYEHHYHTLHGNVCSFCHR [K23H]: the protein stability index was 3.07. Under FDALDDYEHHYHTLHGNVCSFCCR [K23C] stands 3.25; under FDALDDYEHHYHTLHGNVCSFCVR [K23V], 3.28; under FDALDDYEHHYHTLHGNVCSFCWR [K23W], 1.93. Next, FDALDDYEHHYHTLHGNVCSFCQR [K23Q]: 3.71; FDALDDYEHHYHTLHGNVCSFCER [K23E]: 3.97; FDALDDYEHHYHTLHGNVCSFCFR [K23F]: 2.67. Under FDALDDYEHHYHTLHGNVCSFCMR [K23M] stands 3.92; under FDALDDYEHHYHTLHGNVCSFCTR [K23T], 3.25; under FDALDDYEHHYHTLHGNVCSFCSR [K23S], 3.6. For FDALDDYEHHYHTLHGNVCSFCRR [K23R], the protein stability index stood at 4.04. On to FDALDDYEHHYHTLHGNVCSFCIR [K23I], for which the protein stability index turned out to be 2.89.

Turning to FDALDDYEHHYHTLHGNVCSFCDR [K23D], the protein stability index came to 3.45. Consider FDALDDYEHHYHTLHGNVCSFCKH [R24H], for which the protein stability index amounted to 3.79. For the variant FDALDDYEHHYHTLHGNVCSFCKG [R24G], the protein stability index was 4.01. For the variant FDALDDYEHHYHTLHGNVCSFCKP [R24P], the protein stability index was determined as 3.17.

Regarding FDALDDYEHHYHTLHGNVCSFCKV [R24V], the protein stability index was 3.1. As to FDALDDYEHHYHTLHGNVCSFCKK [R24K], the protein stability index came to 4.25. Next, FDALDDYEHHYHTLHGNVCSFCKW [R24W]: 2.95; FDALDDYEHHYHTLHGNVCSFCKL [R24L]: 3.35.

Regarding FDALDDYEHHYHTLHGNVCSFCKT [R24T], the protein stability index stood at 3.84. Next, FDALDDYEHHYHTLHGNVCSFCKA [R24A]: 3.58; FDALDDYEHHYHTLHGNVCSFCKQ [R24Q]: 4.25; FDALDDYEHHYHTLHGNVCSFCKN [R24N]: 4.02. Next, FDALDDYEHHYHTLHGNVCSFCKS [R24S]: 3.8; FDALDDYEHHYHTLHGNVCSFCKC [R24C]: 3.58.

FDALDDYEHHYHTLHGNVCSFCKF [R24F]: the protein stability index was 2.13. As for FDALDDYEHHYHTLHGNVCSFCKM [R24M], the protein stability index was determined as 3.6.

For the variant FDALDDYEHHYHTLHGNVCSFCKD [R24D], the protein stability index was 4.06.

With FDALDDYEHHYHTLHGNVCSFCKY [R24Y], the protein stability index came to 2.88. For the variant FDALDDYEHHYHTLHGNVCSFCKE [R24E], the protein stability index is 4.25. FDALDDYEHHYHTLHGNVCSFCKI [R24I]: the protein stability index was found to be 3.08. FDALDDYEHHYHTLHGNVCSFVKR [C22V]: the protein stability index was determined as 3.04. Regarding FDALDDYEHHYHTLHGNVCSFPKR [C22P], the protein stability index is 3. For FDALDDYEHHYHTLHGNVCSFEKR [C22E], the protein stability index turned out to be 3.2. Consider FDALDDYEHHYHTLHGNVCSFIKR [C22I], for which the protein stability index came to 2.26. For FDALDDYEHHYHTLHGNVCSFFKR [C22F], the protein stability index was determined as 2.2. Take FDALDDYEHHYHTLHGNVCSFDKR [C22D]: the protein stability index came to 3.29. Turning to FDALDDYEHHYHTLHGNVCSFHKR [C22H], the protein stability index worked out at 2.6. In the case of FDALDDYEHHYHTLHGNVCSFWKR [C22W], the protein stability index came out at 1.96. With FDALDDYEHHYHTLHGNVCSFMKR [C22M], the protein stability index was found to be 2.85.

As for FDALDDYEHHYHTLHGNVCSFTKR [C22T], the protein stability index was 2.59. Turning to FDALDDYEHHYHTLHGNVCSFNKR [C22N], the protein stability index worked out at 3.22. FDALDDYEHHYHTLHGNVCSFLKR [C22L]: the protein stability index was determined as 2.11. Under FDALDDYEHHYHTLHGNVCSFSKR [C22S] stands 3.31. On to FDALDDYEHHYHTLHGNVCSFGKR [C22G], for which the protein stability index is 2.37. Under FDALDDYEHHYHTLHGNVCSFQKR [C22Q] stands 3.15; under FDALDDYEHHYHTLHGNVCSFRKR [C22R], 2.73. On to FDALDDYEHHYHTLHGNVCSFKKR [C22K], for which the protein stability index amounted to 3.02. On to FDALDDYEHHYHTLHGNVCSFAKR [C22A], for which the protein stability index came out at 3.11.

In the case of FDALDDYEHHYHTLHGNVCSFYKR [C22Y], the protein stability index is 2.39. FDALDDYEHHYHTLHGNVCSMCKR [F21M]: the protein stability index was found to be 3.71. Take FDALDDYEHHYHTLHGNVCSVCKR [F21V]: the protein stability index amounted to 4.45. As for FDALDDYEHHYHTLHGNVCSCCKR [F21C], the protein stability index worked out at 3.59. Take FDALDDYEHHYHTLHGNVCSNCKR [F21N]: the protein stability index is 4.15. Next, FDALDDYEHHYHTLHGNVCSDCKR [F21D]: 4.62. As for FDALDDYEHHYHTLHGNVCSWCKR [F21W], the protein stability index was determined as 4.32.

As for FDALDDYEHHYHTLHGNVCSYCKR [F21Y], the protein stability index is 3.64. Turning to FDALDDYEHHYHTLHGNVCSGCKR [F21G], the protein stability index amounted to 4.35. Take FDALDDYEHHYHTLHGNVCSKCKR [F21K]: the protein stability index worked out at 4.2.

Take FDALDDYEHHYHTLHGNVCSHCKR [F21H]: the protein stability index came out at 4.

As to FDALDDYEHHYHTLHGNVCSLCKR [F21L], the protein stability index was found to be 4.01. Regarding FDALDDYEHHYHTLHGNVCSQCKR [F21Q], the protein stability index is 4.56. Take FDALDDYEHHYHTLHGNVCSTCKR [F21T]: the protein stability index is 4.28. Regarding FDALDDYEHHYHTLHGNVCSICKR [F21I], the protein stability index was determined as 4.22. For FDALDDYEHHYHTLHGNVCSPCKR [F21P], the protein stability index turned out to be 3.49.

For FDALDDYEHHYHTLHGNVCSRCKR [F21R], the protein stability index was determined as 4.55. Under FDALDDYEHHYHTLHGNVCSSCKR [F21S] stands 3.91; under FDALDDYEHHYHTLHGNVCSACKR [F21A], 4.3.

Consider FDALDDYEHHYHTLHGNVCSECKR [F21E], for which the protein stability index was 4.18.

For FDALDDYEHHYHTLHGNVVSFCKR [C19V], the protein stability index was 2.41. Next, FDALDDYEHHYHTLHGNVTSFCKR [C19T]: 3.41. Take FDALDDYEHHYHTLHGNVGSFCKR [C19G]: the protein stability index came out at 2.9. Take FDALDDYEHHYHTLHGNVNSFCKR [C19N]: the protein stability index was determined as 3.13. On to FDALDDYEHHYHTLHGNVDSFCKR [C19D], for which the protein stability index was determined as 3.36. Next, FDALDDYEHHYHTLHGNVHSFCKR [C19H]: 3.19; FDALDDYEHHYHTLHGNVWSFCKR [C19W]: 1.92. On to FDALDDYEHHYHTLHGNVRSFCKR [C19R], for which the protein stability index turned out to be 2.75.

For FDALDDYEHHYHTLHGNVESFCKR [C19E], the protein stability index is 3.21. For the variant FDALDDYEHHYHTLHGNVYSFCKR [C19Y], the protein stability index turned out to be 2.2. Turning to FDALDDYEHHYHTLHGNVFSFCKR [C19F], the protein stability index was found to be 2.24. For the variant FDALDDYEHHYHTLHGNVSSFCKR [C19S], the protein stability index came to 3.04. FDALDDYEHHYHTLHGNVKSFCKR [C19K]: the protein stability index came out at 3.27. With FDALDDYEHHYHTLHGNVPSFCKR [C19P], the protein stability index turned out to be 3.1. FDALDDYEHHYHTLHGNVISFCKR [C19I]: the protein stability index came out at 2.66. Under FDALDDYEHHYHTLHGNVASFCKR [C19A] stands 3.11. As to FDALDDYEHHYHTLHGNVMSFCKR [C19M], the protein stability index was found to be 2.63. Consider FDALDDYEHHYHTLHGNVQSFCKR [C19Q], for which the protein stability index stood at 2.92.
